In PMC7199903 one finds stoichiometry N data, which are given here for one substance.

Broadly, the stoichiometry N is a count of units in the complex or per binding partner.

The assay deals with recombinant soluble SARS-CoV-2 spike (S) glycoprotein, prefusion-stabilised trimer (2P, GSAS, C-terminal trimerization motif) (SARS-CoV-2). In words: negative-stain EM.

As to “recombinant soluble SARS-CoV-2 spike (S) glycoprotein, prefusion-stabilised trimer (2P, GSAS, C-terminal trimerization motif) (domain or fragment)”, the stoichiometry N stood at 3.
